From PMC8790125, “Molecular Mechanism of SARS-CoVs Orf6 Targeting the Rae1–Nup98 Complex to Compete With mRNA Nuclear Export” (Frontiers in Molecular Biosciences, 2021)

Molecular target: T1, Rae1–Nup98_(GLEBS) complex (UniProt P78406 1-368; P52948 157-213)
T1 construct: Deca-histidine tags are called non-cleavable; also called Rae1–Nup98 complex; Rae1–Nup98 heterodimer; not shown: His10, C-terminal, kept; His10, N-terminal, kept
Experiment: ITC
Conditions: both partners purified

T1 sequence (P78406 whole entry, chain 1 of 2): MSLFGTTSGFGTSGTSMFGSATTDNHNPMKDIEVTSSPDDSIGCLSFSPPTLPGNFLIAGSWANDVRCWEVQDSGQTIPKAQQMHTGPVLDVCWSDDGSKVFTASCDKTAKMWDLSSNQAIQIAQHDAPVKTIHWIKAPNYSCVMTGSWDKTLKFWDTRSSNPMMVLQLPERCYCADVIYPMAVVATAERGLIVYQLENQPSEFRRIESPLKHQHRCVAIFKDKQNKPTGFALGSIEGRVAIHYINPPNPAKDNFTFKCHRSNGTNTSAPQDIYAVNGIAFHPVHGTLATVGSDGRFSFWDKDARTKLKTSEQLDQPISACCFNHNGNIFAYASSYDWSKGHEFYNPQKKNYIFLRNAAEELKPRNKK
T1 sequence (P52948 157-213, chain 2 of 2): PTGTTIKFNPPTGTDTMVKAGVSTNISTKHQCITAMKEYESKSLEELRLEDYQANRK

Question: Which results are given for SKSLTENKYSQLDEEQPMEID (also called SARS-CoV-2 Orf6 peptide) [SARS-CoV-2 Orf6CTT (21-mer peptide, residues 41–61 of SARS-CoV-2 Orf6)]?
Answer: Kd: 0.142 µM; stoichiometry N: 1
